Changes are numbered by the printed parent chain. Names may count otherwise. Where two headings read alike, the source gives them in different places.

Test [1] concerns the target T1, STRADα (Homo sapiens, UniProt Q7RTN6).
T1 construct: wild-type and mutant forms of STRADα (residues 54–431) and MO25α (residues 1–341) were expressed individually as GST fusion proteins in E. coli; GST (cleaved yes); made in house; host or cells: E. coli
T1 sequence (Q7RTN6 54-431): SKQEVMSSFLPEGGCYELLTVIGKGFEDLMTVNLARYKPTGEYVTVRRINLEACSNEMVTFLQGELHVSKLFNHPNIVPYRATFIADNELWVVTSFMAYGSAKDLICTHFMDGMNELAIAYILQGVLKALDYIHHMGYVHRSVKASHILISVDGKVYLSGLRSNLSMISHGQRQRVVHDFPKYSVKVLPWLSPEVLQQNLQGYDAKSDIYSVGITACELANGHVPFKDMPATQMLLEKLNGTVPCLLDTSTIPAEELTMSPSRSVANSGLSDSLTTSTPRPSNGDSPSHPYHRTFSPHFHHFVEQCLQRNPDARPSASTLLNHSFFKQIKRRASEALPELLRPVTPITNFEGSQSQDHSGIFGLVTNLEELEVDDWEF
Kind of test: Displacement of TNP-ATP by ATP and ADP (fluorescence). Format: binding. Particulars: STRADα alone, No Mg2+, displacement of 5 µM TNP-ATP. Here is the method: Fluorescent measurements of TNP-ATP (Molecular Probes), were obtained at 25°C in assay buffer (with the addition of 0.5–1.0 mM MgCl2 where indicated) using 1-cm pathlength cuvettes in a VARIAN Cary Eclipse Fluorescence spectrophotometer (Varian). Fluorescence was recorded using a 410-nm/540-nm excitation/emission wavelengths from 500 to 600 nm. In all cases, signal from the TNP-ATP buffer control was subtracted as background. For all binding studies, STRADα and STRADα mutants were assayed at 2 µM. In cases where STRADα/MO25α complexes were assayed, wild-type or mutant MO25α (2 µM) were preincubated for at least 2 h at 4°C prior to a fluorescence binding experiment. For saturation binding experiments, concentrated stocks of TNP-ATP were added stepwise, covering a range of concentrations from 0.05 to 30 µM. For displacement experiments, the concentration of TNP-ATP was fixed at 5 µM, and ATP or ADP was titrated in, covering a range of concentrations from 0.05 to 500 µM.
All data were analysed using GraphPad-PRISM software (http://www.graphpad.com). […] In the displacement studies, equilibrium constant values for ATP and ADP were calculated by first determining the logEC50 value, using a standard dose-response equation: F x/F max = minimum+(maximum−minimum)/(1+10^([N]−logEC 50 ^)), where [N] equals the concentration of added nucleotide, and F x/F max represents the fractional occupancy. […]

Test [2] concerns the target T2, MO25α (M260A) (Homo sapiens, UniProt Q7RTN6+Q9Y376, M260A).
T2 construct: wild-type and mutant forms of STRADα (residues 54–431) and MO25α (residues 1–341) were expressed individually as GST fusion proteins in E. coli; GST (cleaved yes); made in house; host or cells: E. coli
T2 sequence (Q9Y376 1-341 M260A): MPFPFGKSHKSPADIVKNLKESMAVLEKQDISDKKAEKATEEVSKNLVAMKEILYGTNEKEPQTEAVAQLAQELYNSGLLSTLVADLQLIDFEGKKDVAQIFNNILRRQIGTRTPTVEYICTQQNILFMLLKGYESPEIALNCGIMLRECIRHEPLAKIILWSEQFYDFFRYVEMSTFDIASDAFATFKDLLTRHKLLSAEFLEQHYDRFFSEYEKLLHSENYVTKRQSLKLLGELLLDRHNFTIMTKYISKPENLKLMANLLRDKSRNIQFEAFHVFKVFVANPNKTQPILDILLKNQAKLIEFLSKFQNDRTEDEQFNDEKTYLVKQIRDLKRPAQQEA
T2 sequence (Q7RTN6 59-431): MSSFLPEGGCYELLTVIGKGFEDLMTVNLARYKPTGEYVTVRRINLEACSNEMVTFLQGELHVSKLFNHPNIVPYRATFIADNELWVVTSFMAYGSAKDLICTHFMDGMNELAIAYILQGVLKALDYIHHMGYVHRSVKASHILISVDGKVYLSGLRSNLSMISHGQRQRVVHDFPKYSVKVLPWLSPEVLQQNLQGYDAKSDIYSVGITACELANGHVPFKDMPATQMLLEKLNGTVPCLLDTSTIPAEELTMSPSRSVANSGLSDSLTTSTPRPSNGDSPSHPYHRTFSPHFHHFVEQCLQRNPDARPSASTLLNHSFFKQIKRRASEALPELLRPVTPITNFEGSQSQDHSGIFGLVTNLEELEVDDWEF
Kind of test: SPR BIAcore binding of STRADα to immobilised MO25α. Particulars: + ATP + Mg2+. Here is the method: (§1) SPR measurements were performed using a BIAcore T100 instrument. Wild-type and mutant forms of MO25α were immobilized on a CM5 sensor chip using standard amine-coupling chemistry, and 10 mM HBS (pH 7.4) was used as the running buffer. The carboxymethyl dextran surface was activated with a 7-min injection of a 1∶1 ratio of 0.4 M 1-ethyl-3-(3-dimethylaminopropyl) carbodiimide hydrochloride (EDC)/0.1 M N-hydroxy succinimide (NHS). MO25α (5–7 µM) was coupled to the surface with a 1-min injection of protein diluted in 10 mM sodium acetate (pH 5.5). Remaining activated groups were blocked with a 7-min injection of 1 M ethanolamine (pH 8.5). MO25α was immobilised on three flow cells of a CM5 chip at densities 1,700–2,500 RU performed at 25°C, leaving one flow cell as a reference to subtract any possible nonspecific binding.
(§2) STRADα was prepared in running buffer containing 50 mM Tris (pH 7.8), 50 mM NaCl, 270 mM sucrose, 1 mM DTT, 0.005% P20, and 0.1 mg/ml BSA in the presence/absence of 100 µM ATP and 1 mM MgCl2, and injected over all four surfaces at nine concentrations of a 3-fold concentration series (5 µM to […]). Each concentration was injected in duplicate over all surfaces. Association was measured for 60 s at a flow rate of 50 µl/min, and dissociation was measured for 3 min. STRADα dissociated completely from the MO25α surfaces, thus eliminating the need for a regeneration step.
(§3) Data were analysed using Scrubber 2 (BioLogic Software) and CLAMP software. Data were double referenced to the reference surface to subtract any possible nonspecific binding and to the blank buffer injections to subtract drift of the target from surface. Data were fitted to a 1∶1 or 2∶1 binding site model where appropriate. Kinetic association (k a) and dissociation rate (k d) constants were separately determined from the BIAcore sensorgrams, and equilibrium dissociation constants (K d) were calculated as: K d1 = k d1/k a1 and K d2 = k d2/k a2. Equilibrium constants were also independently calculated from a saturation binding curve, by fitting the measured response (R) from specific binding to the following equation: R = (R max1[STRAD]/([STRAD]+K d1))+(R max2[STRAD]/([STRAD]+K d2)), where R max1 and R max2 are the relative maximal changes in response for sites 1 and 2, respectively, and K d1 and K d2 are the equilibrium dissociation constants for sites 1 and 2, respectively. Dose-response curves for calculating the Hill slope (H) of the data were fitted with the following equation: R = minimum+(maximum−minimum)/(1+10^((logEC50−[STRAD])×H)) using GraphPad-PRISM software.
In general terms: Surface plasmon resonance follows binding to a sensor surface in real time, without labels.

Test [3] addresses T3, MO25α (R227A) (Homo sapiens, UniProt Q7RTN6+Q9Y376, R227A).
T3 construct: wild-type and mutant forms of STRADα (residues 54–431) and MO25α (residues 1–341) were expressed individually as GST fusion proteins in E. coli; GST (cleaved yes); made in house; host or cells: E. coli
T3 sequence (Q9Y376 1-341 R227A): T2 sequence (Q9Y376 1-341 M260A) with R227A, A260M
T3 sequence (Q7RTN6 59-431): T2 sequence (Q7RTN6 59-431)
Kind of test: SPR BIAcore binding of STRADα to immobilised MO25α. Particulars: + ATP + Mg2+. On the procedure: as §1, §2, §3

In test [4] the target is T4, MO25α (WT) (Homo sapiens, UniProt Q7RTN6+Q9Y376).
T4 construct: wild-type and mutant forms of STRADα (residues 54–431) and MO25α (residues 1–341) were expressed individually as GST fusion proteins in E. coli; GST (cleaved yes); made in house; host or cells: E. coli (STRADα: BL21(DE3)pLysS, co-expressed with MO25α and then separated from it)
T4 sequence (Q9Y376 1-341): T2 sequence (Q9Y376 1-341 M260A) with A260M
T4 sequence (Q7RTN6 59-431): T2 sequence (Q7RTN6 59-431)
Kind of test: SPR BIAcore binding of STRADα to immobilised MO25α. Particulars: + ATP + Mg2+. On the procedure: as §1, §2, §3

Test [5] addresses T5, untagged STRADα (residues 59–431) (human, UniProt Q7RTN6 59-431).
T5 construct: STRADα, human, residues 59–431; also called STRADα lacking the His tag
T5 sequence (looked up): T2 sequence (Q7RTN6 59-431)
The experiment in a line: SPR; BIAcore T100, MO25α amine-coupled to CM5 chip, STRADα injected (5 µM to 0.3 nM), 25°C, 50 mM Tris pH 7.8, 50 mM NaCl, 270 mM sucrose, 1 mM DTT, 0.005% P20, 0.1 mg/ml BSA; without ATP; Kd = kd/ka. Conditions: both partners purified.

The term Kd denotes the free concentration of one partner at which half of the binding sites on the other are occupied at equilibrium, for simple one-to-one binding. As for `Nc1ncnc2c1ncn2[C@@H]1O[C@H](COP(=O)(O)OP(=O)(O)O)[C@@H](O)[C@H]1O` [ADP], in test [1] (read-out: Kd ADP), the Kd lay in the range of 2 to 3 µM.

In the case of `Nc1ncnc2c1ncn2[C@@H]1O[C@H](COP(=O)(O)OP(=O)(O)OP(=O)(O)O)[C@@H](O)[C@H]1O` [ATP], the Kd in test [1] (read-out: Kd ATP) lay in the range of 2 to 3 µM.

B1: His-STRADα: STRADα (residues 59–431) with N-terminal 6-His tag, SPR analyte (protein)
chain: T2 sequence (Q7RTN6 59-431)
modifications: lysines chemically methylated in the 2.35 Å crystal form only; left off: His6 with TEV site (…), N-terminal, kept
notes: STRADα (residues 59–431) with N-terminal 6-His tag, SPR analyte
For the molecule B1, the kd1 is reported as 0.77 (4.6 × 10−3) s−1 in test [2], 1.61 (7.0 × 10−3) s−1 in test [3] and 0.55 (3.8 × 10−3) s−1 in test [4]. Also, the results for the kd2 in test [2] and in test [4] were 0.11 (5.3 × 10−4) s−1 and 0.08 (4.8 × 10−4) s−1, respectively.

B2: MO25α (WT) (residues 1–341) (natural protein, human, UniProt Q9Y376 1-341, looked up)
chain: T2 sequence (Q9Y376 1-341 M260A) with A260M
notes: MO25α, human, residues 1–341 (full length); also called MO25α (WT, wild type); wild-type MO25α; source: E. coli, expressed individually as GST fusion, purified on glutathione-Sepharose, eluted with PreScission protease
As for B2, binding in test [5] was characterised by a dissociation constant (Kd) of 3.8 µM.

B3: MO25α (M260A) (residues 1–341) (natural protein, human, UniProt Q9Y376 1-341, looked up)
chain: T2 sequence (Q9Y376 1-341 M260A)
notes: MO25α, human, residues 1–341 (full length), M260A; source: E. coli, expressed individually as GST fusion, purified on glutathione-Sepharose, eluted with PreScission protease
Turning to B3, in test [5], the binding result is “binds”.

(Values after paper PMC2686265, “ATP and MO25α Regulate the Conformational State of the STRADα Pseudokinase and Activation of the LKB1 Tumour Suppressor” (PLoS Biology, 2009).)
